# Data reported in patent EP4695300A2 (dated 2026).
# Substitutions are numbered along the chain they refer to.
# B1: fully human anti-PTGFRN monoclonal antibody 8C7 (antibody, V domains shown)
# VH: QLQLQESGPGLVKPSETLSLTCTVSGGSISSSSYYWGWIRQPPGKGLEWIGSIYYGGSTYYNPSLKSRVTISVDTSTNQFSLKLNSVTAADTAVYYCARQGLGSFDCWGQGTLVTVSS
# VL: DVVMTQSPLSLPVTLGQPASISCRSSQSLVHSDGNTYLNWFQQRPGQSPRRLIYKVSNRDSGVPDRFSGSGSGTDFTLKISGVEAEDVGIYYCMQGTHWPPLTFGGGTKVEIK
# notes: also called anti-PTGFRN antibody 8C7; internalizing anti-PTGFRN 8C7
# B2: fully human anti-PTGFRN monoclonal antibody 4F8 (antibody, IgG4, V domains shown)
# VH: EVQLVESGEGLVQPGRSLRLSCAASGFTFDDYAMHWVRQAPGKGLEWVSGISWDSGRIGYADSVKGRFTISRDNAKNSLYLQMNSLRAEDTALYYCAKDRGGGNWNYYYYGMDVWGQGTTVTVSS
# VL: DIQMTQSPSSLSASVGDRVTITCRASQGISNYLAWFQQKPGKAPKSLIYAASSLQSGVPSKFSGSGSGTDFTLTISSLQPEDFATYYCQQYNSFPFTFGPGTKVDIK
# B3: fully human anti-PTGFRN monoclonal antibody 12D8 (antibody, IgG1, V domains shown)
# VH: EVQLVESGGGLVQPGRSLRLSCAASGFTFDDYAMHWVRQAPGKGLEWVSGISWSSGSLGYEDSVKGRFTISRDNAKKTLYLQMNSLRAEDTALYYCAKDMGFGDFLYYYGMDVWGQGTTVTVSS
# VL: EIVLTQSPGTLSLSPGERATLSCRASQSVSSSYLTWYQQKPGQAPRLLIYGASSRATGIPDRFSGSGSGTDFTLTIRRLEPEDFAVYYCQQYGDSPPWTFGQGTKVEIK
# B4: fully human anti-PTGFRN monoclonal antibody 6B2 (antibody, IgG1, V domains shown)
# VH: B1 VH with G37D, S52T, T77K, Q100G, G101N, L102S, G103Y, S104G, F105L, C107Y
# VL: B1 VL with T36M, G82R, G96S, L102V, G106Q, V110L
# Tests used:
# [1] = target: T1, PTGFRN as used in the Octet / BLI affinity measurement (UniProt Q9P2B2 26-832, limits assumed); test: Bi-Layer Interferometry (BLI), Octet Red96
# T1 sequence (looked up): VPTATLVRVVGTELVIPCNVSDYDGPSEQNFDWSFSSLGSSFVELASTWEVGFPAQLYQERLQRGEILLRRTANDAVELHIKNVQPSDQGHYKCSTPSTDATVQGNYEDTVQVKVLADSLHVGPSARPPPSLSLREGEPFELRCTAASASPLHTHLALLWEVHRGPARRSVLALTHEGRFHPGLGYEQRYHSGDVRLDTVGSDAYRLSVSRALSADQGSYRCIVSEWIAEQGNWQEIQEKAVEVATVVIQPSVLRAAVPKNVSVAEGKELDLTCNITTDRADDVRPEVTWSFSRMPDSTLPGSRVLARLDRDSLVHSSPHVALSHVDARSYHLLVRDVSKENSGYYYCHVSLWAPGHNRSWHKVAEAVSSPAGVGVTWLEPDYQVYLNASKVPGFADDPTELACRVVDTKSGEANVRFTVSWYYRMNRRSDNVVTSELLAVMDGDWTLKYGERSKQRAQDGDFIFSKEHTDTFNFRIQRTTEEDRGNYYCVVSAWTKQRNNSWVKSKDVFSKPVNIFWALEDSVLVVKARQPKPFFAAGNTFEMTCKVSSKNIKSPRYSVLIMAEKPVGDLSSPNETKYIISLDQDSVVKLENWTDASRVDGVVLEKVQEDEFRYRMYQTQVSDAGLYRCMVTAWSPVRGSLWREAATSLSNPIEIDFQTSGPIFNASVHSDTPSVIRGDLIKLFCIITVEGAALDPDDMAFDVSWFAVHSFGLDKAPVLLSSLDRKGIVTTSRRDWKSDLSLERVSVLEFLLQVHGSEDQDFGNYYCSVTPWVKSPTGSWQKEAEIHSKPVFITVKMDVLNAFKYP
# [2] = target: T1, PTGFRN as used in the Octet / BLI …; test: Octet method
# [3] = target: T2, Prostaglandin F2 Receptor Inhibitor (PTGFRN), expressed by cells (human, UniProt Q9P2B2 26-879); test: flow binding on cells
# T2 construct: whole, on cells; Also used for the endogenous protein in Brij-O10 cell lysates in the co-immunoprecipitation experiments; also called cell surface PTGFRN; prostaglandin F2 receptor negative regulator
# T2 sequence (looked up): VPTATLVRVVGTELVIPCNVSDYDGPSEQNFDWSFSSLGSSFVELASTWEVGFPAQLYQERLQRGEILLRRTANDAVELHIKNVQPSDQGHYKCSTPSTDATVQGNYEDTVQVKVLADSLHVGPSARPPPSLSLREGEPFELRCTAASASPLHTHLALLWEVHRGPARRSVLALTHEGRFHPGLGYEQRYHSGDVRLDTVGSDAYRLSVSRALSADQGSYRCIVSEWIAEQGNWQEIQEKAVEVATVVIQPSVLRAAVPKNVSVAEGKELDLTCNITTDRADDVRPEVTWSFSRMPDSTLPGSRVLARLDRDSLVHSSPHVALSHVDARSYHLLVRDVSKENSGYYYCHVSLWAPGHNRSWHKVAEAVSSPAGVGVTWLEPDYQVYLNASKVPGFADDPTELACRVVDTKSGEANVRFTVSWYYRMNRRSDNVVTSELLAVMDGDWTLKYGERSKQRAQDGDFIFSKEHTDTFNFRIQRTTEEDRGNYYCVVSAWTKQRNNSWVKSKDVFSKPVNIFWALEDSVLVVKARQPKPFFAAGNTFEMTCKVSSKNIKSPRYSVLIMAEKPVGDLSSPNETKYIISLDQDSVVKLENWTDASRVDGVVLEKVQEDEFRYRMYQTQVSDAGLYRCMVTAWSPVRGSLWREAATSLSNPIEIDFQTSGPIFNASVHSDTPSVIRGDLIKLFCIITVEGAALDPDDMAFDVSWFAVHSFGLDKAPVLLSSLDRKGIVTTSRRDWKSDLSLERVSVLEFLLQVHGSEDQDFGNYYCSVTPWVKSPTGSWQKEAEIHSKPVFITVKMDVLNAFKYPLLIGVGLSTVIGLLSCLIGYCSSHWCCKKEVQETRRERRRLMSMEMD
Binder,binding result [3],other results
B1,–,Kd [1]: 0.001 nM
B2,–,Kd [2]: 5.2 nM
B3,binds,–
B4,binds,–
